Reduction in antibody binding, MFI and reduction in MFI data for three substances are collected here from patent publication US20180135019A1.

Experiment [1] has as its target STRO-1 monoclonal antibody. Nature of the experiment: competition: STRO-1 pre-incubated with GST-L393, flow cytometry on UE7T-13 cells, relative to pre-incubation with GST alone.
The target of experiment [2] is heat shock cognate 70 (HSC70; HSPA8) on the surface of UE7T-13 cells (human) (UniProt P11142). Nature of the experiment: flow cytometry on UE7T-13 cells, hybridoma supernatant, fluorescein anti-mouse IgM. (A flow cytometer gives signals particle by particle.)
Sequence of UniProt P11142 (P11142 2-646 limits assumed): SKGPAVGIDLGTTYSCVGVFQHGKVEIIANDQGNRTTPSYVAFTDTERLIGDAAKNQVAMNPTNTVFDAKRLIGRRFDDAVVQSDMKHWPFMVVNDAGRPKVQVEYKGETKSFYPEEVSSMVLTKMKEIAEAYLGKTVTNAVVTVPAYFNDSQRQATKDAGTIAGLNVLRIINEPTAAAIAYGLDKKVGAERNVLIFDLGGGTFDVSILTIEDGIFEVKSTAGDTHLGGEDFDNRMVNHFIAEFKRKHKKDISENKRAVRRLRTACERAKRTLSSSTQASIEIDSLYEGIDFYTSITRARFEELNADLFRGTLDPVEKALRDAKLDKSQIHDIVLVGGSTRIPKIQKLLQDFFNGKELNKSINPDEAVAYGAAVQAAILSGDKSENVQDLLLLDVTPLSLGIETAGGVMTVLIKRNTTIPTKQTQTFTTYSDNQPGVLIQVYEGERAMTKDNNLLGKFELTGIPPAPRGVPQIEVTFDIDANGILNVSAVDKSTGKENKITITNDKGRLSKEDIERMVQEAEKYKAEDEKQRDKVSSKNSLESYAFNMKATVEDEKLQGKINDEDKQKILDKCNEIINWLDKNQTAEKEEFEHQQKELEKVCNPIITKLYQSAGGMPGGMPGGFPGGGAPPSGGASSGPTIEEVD
For experiment [3], the target named is STRO-1 monoclonal antibody. As to the kind of experiment: competition: STRO-1 pre-incubated with rh-HSC70 overnight at 4 C, flow cytometry of STRO-1 on UE7T-13 cells.

“GST-L393 (N-terminal Glutathione S-transferase fusion of the first 393 amino acids of human HSC70) (from UniProt A2Q0Z1 1-393)” had a reduction in antibody binding in experiment [1] of 60%.
For STRO-1 monoclonal antibody, the MFI in experiment [2] was determined as 17200.
On to “recombinant human HSC70 (Enzo) (from UniProt A2Q0Z1 1-646)”, for which, in experiment [3], the reduction in MFI amounted to 30%.
